The text below walks through data of US9260500B2, “Peptide and use thereof” (Takeda Pharmaceutical Company Limited, priority 2009, dated 2016).

Starred links: 1 amine or outer side, 2 acyl side, 3 side chain; linkers in the order of their positions; H or OH if unused. Non-standard residues stand in square brackets, D forms with d. *: point of attachment. X6 = ((1S)-1-carboxy-2-hydroxyethyl)carbamoyl, O=C(O)[C@H](CO)NC(=O)*; X2 = (tetrahydro-2H-pyran-4-ylmethyl)carbamoyl, O=C(NCC1CCOCC1)*; Ala(piperidin-4-yl) = O=C([C@H](CC1CCN([*:3])CC1)N[*:1])[*:2]; (carboxymethyl)carbamoyl = O=C(O)CNC(=O)*; Tetrahydropyran4carbonyl = O=C(C1CCOCC1)*; 4Pal = N[C@@H](Cc1ccncc1)C(=O)O; dHyp = O=C(O)[C@H]1C[C@H](O)CN1; Cha = N[C@@H](CC1CCCCC1)C(=O)O; Isonicotinoyl = O=C(c1ccncc1)*; dIva = CC[C@@](C)(N)C(=O)O; Iva = CC[C@](C)(N)C(=O)O; Abu = CC[C@H](N)C(=O)O; Aib = CC(C)(N)C(=O)O

For test [1], the target named is T1, human Y2 receptor (Homo sapiens, UniProt P49146).
T1 construct: expressed in transfected cells; membrane fraction
T1 sequence (P49146 1-381): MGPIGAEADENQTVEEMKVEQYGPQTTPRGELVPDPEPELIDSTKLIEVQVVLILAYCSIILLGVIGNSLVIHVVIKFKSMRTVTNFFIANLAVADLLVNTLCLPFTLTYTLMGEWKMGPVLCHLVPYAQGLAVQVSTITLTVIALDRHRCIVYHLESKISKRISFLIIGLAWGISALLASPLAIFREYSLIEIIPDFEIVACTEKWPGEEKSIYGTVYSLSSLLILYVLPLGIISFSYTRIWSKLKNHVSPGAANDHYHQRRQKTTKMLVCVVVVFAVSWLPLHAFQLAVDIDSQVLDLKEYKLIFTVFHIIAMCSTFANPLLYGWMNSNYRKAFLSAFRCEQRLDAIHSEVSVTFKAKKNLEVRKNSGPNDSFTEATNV
The test can be described thus: Human Y2 Receptor G Protein Binding Assay (GBA), [35S]GTPγS. In kind it is biochemical. The conditions noted are these: EC50 of test compound/EC50 of PYY(3-36) (PYY3-36 taken as 1), hY2R/CHO membrane fraction. The method in brief:
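Agonism measured as [35S]GTPγS binding, read by GF/C filtration and scintillation counting after 120 min at room temperature, using human Y2 membranes at 1 μg protein/mL in pH 7.4 Tris/MgCl2/NaCl/GDP buffer. Compound serially diluted 100 μM–1 nM; EC50 normalized to PYY(3-36) (ratio = compound/PYY).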
(In general: GTPγS resists hydrolysis and so accumulates on activated G proteins.)

Another test has as its system male C57EL/6J mice. Description: 3-Days Continuous Subcutaneous Administration Test-1 (food intake suppressing activity). It counts as in vivo, mouse. The conditions noted are these: 0.03 mg/kg/day, subcutaneous Alzet pump, food consumption over 3 days; relative to food intake suppression rate for PYY(3-36) (1 mg/kg/day) taken as 100%. How it is done: (4) Test Method: 3-Days Continuous Subcutaneous Administration Test-1
The food intake suppressing activity of the compound of the present invention was examined by the method described below.
The test compound was dissolved in 50% DMSO so that sustained release would occur at 0.03 mg/kg/day, and the solution was filled in the Alzet Pump (Alzet model: 1003D, sustained release rate: 1 μL/hr, capacity: 100 μL). After the filling, the pump was placed in a 2 mL Eppendorf tube containing 330 μL of physiological saline, and incubated at 37° C. for 2 hours or more. Thereafter, this pump was subcutaneously embedded in the back of each mouse by the method described below. After weighing, each male […] mice at 12-13 weeks of age (25° C., allowed to take food and water ad libitum; 12-hour bright-12-hour dark cycle, lighting turned on at 08:00) was anesthetized with diethyl ether; the skin in the upper back thereof was incised, and the above-mentioned pump was embedded subcutaneously. Thereafter, several drops of penicillin solution (100000 units/mL) were added to the incised part, and the incision was sutured using Michel's surgical needle. This mouse was returned to the rearing cage (reared alone), and given previously weighed food; 3 days later, the amount of remaining food was measured. Food consumption was calculated by subtracting the amount of remaining food after 3 days from the weight of the food given on the day of pump embedding. The food intake suppressing activity of each test compound was expressed as a food intake suppression rate (%) relative to the food intake suppression rate for PYY(3-36) (1 mg/kg/day) taken as 100%.

The target of test [2] is T1, human Y2 receptor. The test can be described thus: Receptor Binding Assay (RBA) for Human Y2, [125I]-PYY displacement on hY2R/CHO membrane fraction. The conditions noted are these: IC50 of test compound/IC50 of PYY(3-36) (PYY(3-36) taken as 1). The method in brief: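 hY2R stably expressed in CHO/dhfr− cells; membrane fraction prepared from cells disrupted in 10 mM NaHCO3, 5 mM EDTA buffer with protease inhibitors. Binding read as displacement of [125I]-PYY.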

With “(Carboxymethyl)carbamoyl-[D-Pro24, Iva25, Pya(4)26, Cha27,36, Aib28,31, Lys30]-PYY(23-36) ({(carboxymethyl)carbamoyl}-S[dP][Iva][4Pal][Cha][Aib]NK[Aib]TRQR[Cha]-NH2; SMILES CC[C@](C)(NC(=O)[C@H]1CCCN1C(=O)[C@H](CO)NC(=O)NCC(=O)O)C(=O)N[C@@H](Cc1ccncc1)C(=O)N[C@@H](CC1CCCCC1)C(=O)NC(C)(C)C(=O)N[C@@H](CC(N)=O)C(=O)N[C@@H](CCCCN)C(=O)NC(C)(C)C(=O)N[C@H](C(=O)N[C@@H](CCCNC(=N)N)C(=O)N[C@@H](CCC(N)=O)C(=O)N[C@@H](CCCNC(=N)N)C(=O)N[C@@H](CC1CCCCC1)C(N)=O)[C@@H](C)O) [compound No. 327]”, the “GBA EC50 Ratio” value in the test with human Y2 receptor [1] turned out to be 1.6. Further, the “food intake suppression rate (%)” value in the test with male C57EL/6J mice turned out to be 58%. In the test with human Y2 receptor [2], the “RBA IC50 Ratio” value turned out to be 3.0.
Taken in the same sequence, the figures for “Ac-[D-Pro24, Ala(4Pip)25, Pya(4)26, Cha27,36, Aib28,31, Lys30]-PYY(23-36) [compound No. 312] (Ac-S[dP][Ala(piperidin-4-yl)][4Pal][Cha][Aib]NK[Aib]TRQR[Cha]-NH2; SMILES CC(=O)N[C@@H](CO)C(=O)N1CCC[C@@H]1C(=O)N[C@@H](CC1CCNCC1)C(=O)N[C@@H](Cc1ccncc1)C(=O)N[C@@H](CC1CCCCC1)C(=O)NC(C)(C)C(=O)N[C@@H](CC(N)=O)C(=O)N[C@@H](CCCCN)C(=O)NC(C)(C)C(=O)N[C@H](C(=O)N[C@@H](CCCNC(=N)N)C(=O)N[C@@H](CCC(N)=O)C(=O)N[C@@H](CCCNC(=N)N)C(=O)N[C@@H](CC1CCCCC1)C(N)=O)[C@@H](C)O)” were 5.8, 10% and 4.3.
Taken in the same sequence, the figures for “[(1S)-1-carboxy-2-hydroxyethyl]carbamoyl-[D-Pro24, Pya(4)26, Cha27,36, Aib28,31, Lys30]-PYY(23-36) (X6-S[dP]R[4Pal][Cha][Aib]NK[Aib]TRQR[Cha]-NH2; SMILES C[C@@H](O)[C@H](NC(=O)C(C)(C)NC(=O)[C@H](CCCCN)NC(=O)[C@H](CC(N)=O)NC(=O)C(C)(C)NC(=O)[C@H](CC1CCCCC1)NC(=O)[C@H](Cc1ccncc1)NC(=O)[C@H](CCCNC(=N)N)NC(=O)[C@H]1CCCN1C(=O)[C@H](CO)NC(=O)N[C@@H](CO)C(=O)O)C(=O)N[C@@H](CCCNC(=N)N)C(=O)N[C@@H](CCC(N)=O)C(=O)N[C@@H](CCCNC(=N)N)C(=O)N[C@@H](CC1CCCCC1)C(N)=O) [compound No. 288]” were 1.3, 28% and 0.52.
The corresponding values for “Ac-[D-Hyp24, Iva25,28, Pya(4)26, Cha27,36, Lys30, Aib31]-PYY(23-36) (Ac-S[dHyp][Iva][4Pal][Cha][Iva]NK[Aib]TRQR[Cha]-NH2; ends and bridges not checked) [compound No. 298]” are 1.0, 56% and 0.86.
Turning to “Ac-[D-Iva24, Pya(4)26, Cha27,36, Aib28,31, Lys30]-PYY(23-36) (Ac-S[dIva]R[4Pal][Cha][Aib]NK[Aib]TRQR[Cha]-NH2; SMILES CC[C@@](C)(NC(=O)[C@H](CO)NC(C)=O)C(=O)N[C@@H](CCCNC(=N)N)C(=O)N[C@@H](Cc1ccncc1)C(=O)N[C@@H](CC1CCCCC1)C(=O)NC(C)(C)C(=O)N[C@@H](CC(N)=O)C(=O)N[C@@H](CCCCN)C(=O)NC(C)(C)C(=O)N[C@H](C(=O)N[C@@H](CCCNC(=N)N)C(=O)N[C@@H](CCC(N)=O)C(=O)N[C@@H](CCCNC(=N)N)C(=O)N[C@@H](CC1CCCCC1)C(N)=O)[C@@H](C)O) [compound No. 242]”, the “GBA EC50 Ratio” value in the test with human Y2 receptor [1] is 1.3. Further, the “food intake suppression rate (%)” value with male C57EL/6J mice came to 25%. In addition, the “RBA IC50 Ratio” value with human Y2 receptor [2] was 0.39.
Taken in the same sequence, the figures for “4-Imidazolecarbonyl-[D-Hyp24, Iva25,28, Pya(4)26, Cha27,36, Lys30, Adb31]-PYY(23-36) [compound No. 337]” were 1.3, 49% and 0.99.
For “(Tetrahydro-2H-pyran-4-ylmethyl)carbamoyl-[D-Pro24, Iva25, Pya(4)26, Cha27,36, Aib28,31, Lys30]-PYY(23-36) (X2-S[dP][Iva][4Pal][Cha][Aib]NK[Aib]TRQR[Cha]-NH2; SMILES CC[C@](C)(NC(=O)[C@H]1CCCN1C(=O)[C@H](CO)NC(=O)NCC1CCOCC1)C(=O)N[C@@H](Cc1ccncc1)C(=O)N[C@@H](CC1CCCCC1)C(=O)NC(C)(C)C(=O)N[C@@H](CC(N)=O)C(=O)N[C@@H](CCCCN)C(=O)NC(C)(C)C(=O)N[C@H](C(=O)N[C@@H](CCCNC(=N)N)C(=O)N[C@@H](CCC(N)=O)C(=O)N[C@@H](CCCNC(=N)N)C(=O)N[C@@H](CC1CCCCC1)C(N)=O)[C@@H](C)O) [compound No. 340]”, the “GBA EC50 Ratio” value in the test with human Y2 receptor [1] was 1.9. In addition, in the test with male C57EL/6J mice, the “food intake suppression rate (%)” value amounted to 27%. Also, in the test with human Y2 receptor [2], the “RBA IC50 Ratio” value worked out at 1.7.
Taken in the same sequence, the figures for “4-Pyridinecarbonyl-[D-Pro24, Iva25, Pya(4)26, Cha27,36, Aib28,31, Lys30]-PYY(23-36) (Isonicotinoyl-S[dP][Iva][4Pal][Cha][Aib]NK[Aib]TRQR[Cha]-NH2; SMILES CC[C@](C)(NC(=O)[C@H]1CCCN1C(=O)[C@H](CO)NC(=O)c1ccncc1)C(=O)N[C@@H](Cc1ccncc1)C(=O)N[C@@H](CC1CCCCC1)C(=O)NC(C)(C)C(=O)N[C@@H](CC(N)=O)C(=O)N[C@@H](CCCCN)C(=O)NC(C)(C)C(=O)N[C@H](C(=O)N[C@@H](CCCNC(=N)N)C(=O)N[C@@H](CCC(N)=O)C(=O)N[C@@H](CCCNC(=N)N)C(=O)N[C@@H](CC1CCCCC1)C(N)=O)[C@@H](C)O) [compound No. 301]” were 1.1, 35% and 1.0.
Taken in the same sequence, the figures for “(Carboxymethyl)carbamoyl-[D-Pro24, Pya(4)26, Cha27,36, Aib28,31, Lys30]-PYY(23-36) ({(carboxymethyl)carbamoyl}-S[dP]R[4Pal][Cha][Aib]NK[Aib]TRQR[Cha]-NH2; ends and bridges not checked) [compound No. 287]” were 1.2, 42% and 1.2.
The corresponding values for “(Tetrahydro-2H-pyran-4-yl)carbonyl-[D-Pro24, Pya(4)26, Cha27,36, Aib28,31, Lys30]-PYY(23-36) (Tetrahydropyran4carbonyl-S[dP]R[4Pal][Cha][Aib]NK[Aib]TRQR[Cha]-NH2; SMILES C[C@@H](O)[C@H](NC(=O)C(C)(C)NC(=O)[C@H](CCCCN)NC(=O)[C@H](CC(N)=O)NC(=O)C(C)(C)NC(=O)[C@H](CC1CCCCC1)NC(=O)[C@H](Cc1ccncc1)NC(=O)[C@H](CCCNC(=N)N)NC(=O)[C@H]1CCCN1C(=O)[C@H](CO)NC(=O)C1CCOCC1)C(=O)N[C@@H](CCCNC(=N)N)C(=O)N[C@@H](CCC(N)=O)C(=O)N[C@@H](CCCNC(=N)N)C(=O)N[C@@H](CC1CCCCC1)C(N)=O) [compound No. 324]” are 0.71, 42% and 1.1.
On to “Ac-[D-Pro24, Abu26, Cha27,36, Aib28,31, Lys30]-PYY(23-36) (Ac-S[dP]R[Abu][Cha][Aib]NK[Aib]TRQR[Cha]-NH2; SMILES CC[C@H](NC(=O)[C@H](CCCNC(=N)N)NC(=O)[C@H]1CCCN1C(=O)[C@H](CO)NC(C)=O)C(=O)N[C@@H](CC1CCCCC1)C(=O)NC(C)(C)C(=O)N[C@@H](CC(N)=O)C(=O)N[C@@H](CCCCN)C(=O)NC(C)(C)C(=O)N[C@H](C(=O)N[C@@H](CCCNC(=N)N)C(=O)N[C@@H](CCC(N)=O)C(=O)N[C@@H](CCCNC(=N)N)C(=O)N[C@@H](CC1CCCCC1)C(N)=O)[C@@H](C)O) [compound No. 320]”, for which the “GBA EC50 Ratio” value with human Y2 receptor [1] is 0.98. Besides, the “food intake suppression rate (%)” value with male C57EL/6J mice amounted to 18%. In addition, in the test with human Y2 receptor [2], the “RBA IC50 Ratio” value was 2.3.
